Test results from article PMC4431499.

Biological target: T1, PTK7 (on intact CCRF-CEM cells) (human (CCRF-CEM, T cell acute lymphoblastic leukemia)) (UniProt Q13308)
T1 sequence: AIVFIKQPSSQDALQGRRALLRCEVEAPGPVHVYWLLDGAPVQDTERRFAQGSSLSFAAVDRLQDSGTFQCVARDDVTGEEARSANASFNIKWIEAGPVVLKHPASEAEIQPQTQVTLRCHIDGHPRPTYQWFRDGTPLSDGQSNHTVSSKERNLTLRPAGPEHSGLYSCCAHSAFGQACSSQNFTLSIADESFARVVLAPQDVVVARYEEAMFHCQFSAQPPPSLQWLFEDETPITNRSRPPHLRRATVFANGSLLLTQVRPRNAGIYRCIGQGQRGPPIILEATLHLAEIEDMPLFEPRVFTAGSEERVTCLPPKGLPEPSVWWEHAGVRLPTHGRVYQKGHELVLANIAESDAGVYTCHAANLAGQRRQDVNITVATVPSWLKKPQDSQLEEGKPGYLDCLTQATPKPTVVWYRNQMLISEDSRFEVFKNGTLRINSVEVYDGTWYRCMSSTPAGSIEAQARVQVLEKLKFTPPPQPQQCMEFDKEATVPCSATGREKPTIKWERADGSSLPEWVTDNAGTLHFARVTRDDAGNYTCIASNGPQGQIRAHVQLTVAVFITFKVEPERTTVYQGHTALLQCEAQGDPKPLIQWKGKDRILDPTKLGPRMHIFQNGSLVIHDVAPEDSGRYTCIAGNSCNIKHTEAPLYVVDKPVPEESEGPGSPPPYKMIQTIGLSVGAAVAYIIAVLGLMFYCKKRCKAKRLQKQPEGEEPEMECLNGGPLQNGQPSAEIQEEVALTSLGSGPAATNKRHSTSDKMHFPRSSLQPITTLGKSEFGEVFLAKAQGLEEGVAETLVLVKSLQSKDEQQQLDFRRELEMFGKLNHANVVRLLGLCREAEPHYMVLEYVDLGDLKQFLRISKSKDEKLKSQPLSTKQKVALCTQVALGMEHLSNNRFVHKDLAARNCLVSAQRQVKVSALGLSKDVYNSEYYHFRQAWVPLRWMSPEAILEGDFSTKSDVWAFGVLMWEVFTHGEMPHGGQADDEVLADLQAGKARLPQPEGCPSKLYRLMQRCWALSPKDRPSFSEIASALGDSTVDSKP
Assay: flow cytometry, CCRF-CEM cells
Conditions: apparent Kd on cells, 1x PBS, 0.55 mM MgCl2, pH 7.4, 200 uL, 1e5 cells, 30 min in the dark at room temperature (Methods; Results say on ice)

Sequence	Kd	Kd (multivalent)
ATCTAACTGCTGCGCCGCCGGGAAAATACTGTACGGTTAGA [free sgc8]	2.95 nM	–
TATGTCTCGAGTATTTTTATCTAACTGCTGCGCCGCCGGGAAAATACTGTACGGTTAGA / GACCGATGGATGACCTGTCTGCCTAATGTGCGTCGTAAG / GACCGATGGATGACTTACGACGCACAAGGAGATCATGAG / GACCGATGGATGACTCATGATCTCCTTTAGGCAGACAGG / GAAGCCACTCTGACCTGTCTGCCTAATGTGCGTCGTAAG / GAAGCCACTCTGACTTACGACGCACAAGGAGATCATGAG / TCATCCATCGGTCCTCATGATCTCCTTTAGGCAGACAGG / GACACACTGAGGTCCTGTCTGCCTAATGTGCGTCGTAAG / GACACACTGAGGTCTTACGACGCACAAGGAGATCATGAG / TCAGAGTGGCTTCCTCATGATCTCCTTTAGGCAGACAGG / TACTCGAGACATACCTGTCTGCCTAATGTGCGTCGTAAG / TACTCGAGACATACTTACGACGCACAAGGAGATCATGAG / ACCTCAGTGTGTCCTCATGATCTCCTTTAGGCAGACAGG [G3-sgc8 DNA dendrimer]	–	0.07 nM
